The results in this text go back to IntAct's records for PubMed 22118466.

The labels stand for the following.
B1: Phosphatidylinositol-binding clathrin assembly protein (Rattus norvegicus (Rat)), O55012 (parent)
chain: MSGQSLTDRITAAQHSVTGSAVSKTVCKATTHEIMGPKKKHLDYLIQCTNEMNVNIPQLADSLFERTTNSSWVVVFKSLITTHHLMVYGNERFIQYLASRNTLFNLSNFLDKSGLQGYDMSTFIRRYSRYLNEKAVSYRQVAFDFTKVKRGADGVMRTMNTEKLLKTVPIIQNQMDALLDFNVNSNELTNGVINAAFMLLFKDAIRLFAAYNEGIINLLEKYFDMKKNQCKEGLDIYKKFLTRMTRISEFLKVAEQVGIDRGDIPDLSQAPSSLLDALEQHLASLEGKKIKDSTAASRATTLSNAVSSLASTGLSLTKVDEREKQAALEEEQARLKALKEQRLKELAKKPHTSLTTAASPVSTSAGGIMTAPAIDIFSTPSSSNSTSKLPNDLLDLQQPTFHPSVHAMSAAPQVASTWGDAVDDAIPSLNPFLTKSSGDVHLPISSDVSTFTTRTPTHEMFVGFSPSPVTQPHPSAGLNVDFESVFGNKSTNVAVDSGGGLLKPTVASQNQSLPVAKLPPNKLVSDDLDSSLANLVGNLGIGNGTTKNDVSCSQPGEKKLTGGSNWQPKVAPTTAWSAATMAPPVMAYPATTPTGMIGYGIPPQMGSVPVMTQPTLIYSQPVMRPPNPFGPVPGAQIQFM
partner: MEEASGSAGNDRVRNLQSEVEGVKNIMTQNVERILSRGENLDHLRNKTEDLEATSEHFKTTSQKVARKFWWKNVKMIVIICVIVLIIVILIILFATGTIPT
B2: Vesicle-associated membrane protein 8 (Mus musculus), O70404 (parent)
chain: B1 partner
partner: B1 chain

The variants in the first assay derive from B1. To be noted: with vamp8_mouse Vamp8, O70404.
Turning to I247D, the “effect of a mutation on the interaction” value is listed as “disrupting interaction”.

As to D224K, the “effect of a mutation on the interaction” value was “disrupting interaction”.

For the variant L251S, the “effect of a mutation on the interaction” value was “disrupting interaction”.

In the case of F240A, the “effect of a mutation on the interaction” value is “disrupting interaction”.

Consider L219S, for which the “effect of a mutation on the interaction” value is “disrupting interaction”.

In the next assay the parent is B1. To be noted: with vamp8_mouse Vamp8, O70404. This is another data set of the same source.
As to M244K, the “effect of a mutation on the interaction” value is reported as “disrupting interaction”.

Variants of B2 are the subject of another assay. To be noted: with pical_rat Picalm, O55012.
As to MEEASGSAGNDRVRNPQSEVEGPKNIMTQNVERILSRGENLDHLRNKTEDLEATSEHFKTTSQKVARKFWWKNVKMIVIICVIVLIIVILIILFATGTIPT, the “effect of a mutation on the interaction” value is recorded as “disrupting interaction”.

With MEEASGSAGNDRVRNLQSEVEGVANIATQNVERILSRGENLDHLRNKTEDLEATSEHFKTTSQKVARKFWWKNVKMIVIICVIVLIIVILIILFATGTIPT, the “effect of a mutation on the interaction” value is on record as “disrupting interaction”.
